Results from patent US20100048468A1 (Amgen, published 2010).
Read-outs that look alike come from different tables or passages of the source. Positions of bridges follow the written chain, without caps; N, C: chain ends. No end group written: not given here.

Legend:
human GLP-1 receptor [1] = target: T1, human GLP-1 receptor (human, UniProt P43220 24-463); assay: cell-based or functional assay
mouse GLP-1 receptor [2] = target: T2, mouse GLP-1 receptor (mouse, UniProt O35659 22-463); assay: cell-based or functional assay
T2 sequence (looked up): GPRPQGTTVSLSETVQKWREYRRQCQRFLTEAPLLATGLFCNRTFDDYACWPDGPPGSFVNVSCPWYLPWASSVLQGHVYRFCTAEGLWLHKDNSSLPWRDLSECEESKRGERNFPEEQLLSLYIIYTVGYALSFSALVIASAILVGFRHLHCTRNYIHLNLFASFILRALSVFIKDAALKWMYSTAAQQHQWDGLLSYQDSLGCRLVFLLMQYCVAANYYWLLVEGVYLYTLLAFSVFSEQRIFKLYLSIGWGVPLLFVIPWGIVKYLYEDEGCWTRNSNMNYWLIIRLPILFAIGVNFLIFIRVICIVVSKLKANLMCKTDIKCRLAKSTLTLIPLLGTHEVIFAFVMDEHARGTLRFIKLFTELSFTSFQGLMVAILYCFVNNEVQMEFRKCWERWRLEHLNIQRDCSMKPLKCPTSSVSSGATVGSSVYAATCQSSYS

human GLP-1 receptor [3] = target: T1, human GLP-1 receptor; assay: 125I-GLP-1 displacement, membranes of CHOK1 cells expressing human GLP-1 receptor
human GLP-1 receptor [4] = target: T1, human GLP-1 receptor; assay: cell-based or functional assay; remark: listed apart in the source
human GLP-1 receptor [5] = target: T1, human GLP-1 receptor; assay: 125I-GLP-1 displacement, membranes of CHOK1 cells expressing human GLP-1 receptor
Protocol: Membrane Preparation. […] Cells were sedimented at 1500 rpm for 10 minutes. The resulting pellets were homogenized in 15 mls of ice cold sucrose buffer (25 mM Tris-HCl, 0.32 M Sucrose, 0.25 g/L, sodium azide, pH 7.4) with a motorized, glass fitted, Teflon homogenizer. The homogenate was centrifuged at 48,000×g at 4° C. for 10 minutes, resuspended in 25 ml assay buffer (50 mM Tris-HCl, 5 mM MgCl₂, 10 mg/ml protease-free BSA, 0.1 mg/ml STI, and 0.1 mg/ml Pefabloc, pH 7.4) with a Tissue-Tearor (Biospec Products), then centrifuged again at 48,000×g for 10 minutes. The pellets were homogenized for a third time in 15 ml assay buffer using the Tissue-Tearor and again centrifuged at 48,000×g for 10 minutes. The resulting pellet was resuspended in assay buffer at a wet weight concentration of 4 mg/ml.
Ligand Binding Assay. Binding assays were performed in 96-well U-bottom plates. […] The reaction was terminated by rapid filtration through Unfilter-96 GF/C glass fiber filter plates (FilterMate 196 Packard Harvester, PerkinElmer, Shelton, Conn.) pre-soaked in 0.5% polyethylenimine, followed by three washes with 300 μl of cold 50 mM Tris-HCl, pH 7.4. Bound radioactivity was determined using a TopCount microplate scintillation and luminescence counter (Packard Instrument Company, PerkinElmer, Shelton, Conn.). […]

[6] = target: T3, human GLP-1 receptor (human), P43220; assay: as above
T3 chain: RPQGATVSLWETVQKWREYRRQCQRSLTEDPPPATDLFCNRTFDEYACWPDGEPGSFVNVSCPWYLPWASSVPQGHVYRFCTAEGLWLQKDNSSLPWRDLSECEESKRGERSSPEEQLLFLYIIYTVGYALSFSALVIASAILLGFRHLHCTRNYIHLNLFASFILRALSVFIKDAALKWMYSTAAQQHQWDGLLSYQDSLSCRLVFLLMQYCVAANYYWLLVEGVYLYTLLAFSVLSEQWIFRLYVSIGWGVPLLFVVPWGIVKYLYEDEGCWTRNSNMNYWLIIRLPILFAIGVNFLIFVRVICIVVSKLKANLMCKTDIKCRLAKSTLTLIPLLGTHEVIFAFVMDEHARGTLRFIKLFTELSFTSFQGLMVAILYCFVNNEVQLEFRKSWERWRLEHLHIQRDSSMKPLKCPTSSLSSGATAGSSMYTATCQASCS

[7] = target: T3, human GLP-1 receptor (human), P43220; assay: cell-based or functional assay
[8] = target: T4, mouse GLP-1 receptor (mouse), O35659; assay: cell-based or functional assay
T4 chain: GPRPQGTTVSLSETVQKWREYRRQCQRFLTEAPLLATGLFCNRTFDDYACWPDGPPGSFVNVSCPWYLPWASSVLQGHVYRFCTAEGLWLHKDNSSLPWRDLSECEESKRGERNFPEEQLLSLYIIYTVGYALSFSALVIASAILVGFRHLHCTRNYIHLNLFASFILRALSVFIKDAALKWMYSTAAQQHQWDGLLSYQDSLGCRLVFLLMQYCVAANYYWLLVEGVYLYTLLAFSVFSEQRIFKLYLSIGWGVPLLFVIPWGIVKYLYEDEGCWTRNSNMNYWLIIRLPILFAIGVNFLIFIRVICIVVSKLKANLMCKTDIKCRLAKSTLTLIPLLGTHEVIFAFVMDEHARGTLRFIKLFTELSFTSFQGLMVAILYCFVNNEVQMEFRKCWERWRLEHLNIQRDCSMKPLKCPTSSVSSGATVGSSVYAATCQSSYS

mouse GLP-1 receptor [9] = target: T2, mouse GLP-1 receptor; assay: cell-based or functional assay; remark: listed apart in the source

## HGEGT FTSDV SSYLE [Aib]QAAK EFIAW LVKGR-AMIDE (SEQ ID NO: 14) (peptide)
Human GLP-1 receptor [1]
  EC50 human: 0.016 nM
Mouse GLP-1 receptor [2]
  EC50 mouse: 0.15 nM
Human GLP-1 receptor [3]
  IC50: 2.5 nM

B1: cycloE22-O26 (SEQ ID NO: 69) (peptide)
peptide: HGEGTFTSDVSSYLEEQAAXEFIAWLVKGRG
modifications: ornithine at position 26 (GLP-1 numbering; residue 20 of the entry); side-chain cyclic lactam between Glu22 and Orn26; C-terminal amide
notes: Not pegylated
Human GLP-1 receptor [4]
  EC50 human: 0.051 nM
Human GLP-1 receptor [5]
  IC50: 3.7 nM

## HGEGTFTSDVSSYLEGQAAKEFIAWLVKGRGCSG (modifications not checked) [cgGLP-10 (SEQ ID NO: 10 + 20k PEG dimer)]
[6]
  IC50: 100 nM
[7]
  EC50 human: 0.6 nM
[8]
  EC50 mouse: 4 nM

B2: GLP1(7-37) cyclo[Lys16-Glu20] (SEQ ID NO: 159) (peptide)
peptide: HGEGTFTSDVSSYLEKQAAEEFIAWLVKGRG-NH2
modifications: lactam 16-20; N-terminus assumed
SMILES: CC[C@H](C)[C@H](NC(=O)[C@H](Cc1ccccc1)NC(=O)[C@H](CCC(=O)O)NC(=O)[C@@H]1CCC(=O)NCCCC[C@H](NC(=O)[C@H](CCC(=O)O)NC(=O)[C@H](CC(C)C)NC(=O)[C@H](Cc2ccc(O)cc2)NC(=O)[C@H](CO)NC(=O)[C@H](CO)NC(=O)[C@@H](NC(=O)[C@H](CC(=O)O)NC(=O)[C@H](CO)NC(=O)[C@@H](NC(=O)[C@H](Cc2ccccc2)NC(=O)[C@@H](NC(=O)CNC(=O)[C@H](CCC(=O)O)NC(=O)CNC(=O)[C@@H](N)Cc2c[nH]cn2)[C@@H](C)O)[C@@H](C)O)C(C)C)C(=O)N[C@@H](CCC(N)=O)C(=O)N[C@@H](C)C(=O)N[C@@H](C)C(=O)N1)C(=O)N[C@@H](C)C(=O)N[C@@H](Cc1c[nH]c2ccccc12)C(=O)N[C@@H](CC(C)C)C(=O)N[C@H](C(=O)N[C@@H](CCCCN)C(=O)NCC(=O)N[C@@H](CCCNC(=N)N)C(=O)NCC(N)=O)C(C)C
Human GLP-1 receptor [4]
  EC50 human: 0.016 nM
Mouse GLP-1 receptor [9]
  EC50 mouse: 0.1 nM
